Laboratory results as given in the supplement of paper PMC11246515.
± gives the standard deviation of the averaged measurements.

Assay: total protein half-life in vivo (active degradation + dilution); higher = more stable protein
[1] = E. coli NCM3722 delta-smpB, growth: N-lim chemostat, doubling time 6 h
[2] = wild type E. coli NCM3722, growth: C-lim chemostat, doubling time 6 h
[3] = E. coli NCM3722 delta-hslV, growth: N-lim chemostat, doubling time 6 h
[4] = E. coli NCM3722 delta-lon, growth: N-lim chemostat, doubling time 6 h
[5] = wild type E. coli NCM3722, growth: C-lim chemostat, doubling time 3 h
[6] = wild type E. coli NCM3722, growth: C-lim chemostat, doubling time 12 h
[7] = wild type E. coli NCM3722, growth: P-lim chemostat, doubling time 6 h
[8] = wild type E. coli NCM3722, growth: P-lim chemostat, doubling time 12 h
[9] = E. coli NCM3722 delta-clpP delta-lon delta-hslV, growth: N-lim chemostat, doubling time 6 h
[10] = E. coli NCM3722 delta-clpP, growth: N-lim chemostat, doubling time 6 h
[11] = wild type E. coli NCM3722, growth: N-lim chemostat, doubling time 6 h
[12] = wild type E. coli NCM3722, growth: N-lim chemostat, doubling time 12 h

Sequence	total protein half-life in vivo [1] [h]	total protein half-life in vivo [2] [h]	total protein half-life in vivo [3] [h]	total protein half-life in vivo [4] [h]	total protein half-life in vivo [5] [h]	total protein half-life in vivo [6] [h]	total protein half-life in vivo [7] [h]	total protein half-life in vivo [8] [h]	total protein half-life in vivo [9] [h]	total protein half-life in vivo [10] [h]	total protein half-life in vivo [11] [h]	total protein half-life in vivo [12] [h]
MFDYILSLGGTVFVPIIMIVIGLIFRIPWLQAIKAGVTVGIGFVGMGLVIVMAIDSLSPPIKVMIERFGLALHVFDVGAGPASGVGYATAIGAMIIPVIFLLNVAMLVTRLTKTMNVDIYNYWHYAITGTVVQLMTGSLIYGVLGAICHAALSLKMADWTAKRVQNIVGLEGISIPQGYGSSSVPLFVLLDAIYEKIPFMKGRNIDAQEIQKRYGMVGDPVIIGVVLGLIFGLAAGEGFKGCASLMITVAAIMVLFPRMIRLIVEGLLPISDGARKFFQKYFKGREVYIGLDTAVTLGHPTTIAVGLLLIPIMLILASILPGNKVLPLADLPVAPFFICMATVIHRGDLVRTLISGVIVMITVLLIATQFAPYFTEMALKGGFSFAGESAQISALSVGNMFGWSISELMSLGIIGVVVAVGIVASVVLFLRKRELSE	7.4	6 ± 0.68										
MTEFTTLLQQGNAWFFIPSAILLGALHGLEPGHSKTMMAAFIIAIKGTIKQAVMLGLAATISHTAVVWLIAFGGMVISKRFTAQSAEPWLQLISAVIIISTAFWMFWRTWRGERNWLENMHGHDYEHHHHDHEHHHDHGHHHHHEHGEYQDAHARAHANDIKRRFDGREVTNWQILLFGLTGGLIPCPAAITVLLICIQLKALTLGATLVVSFSIGLALTLVTVGVGAAISVQQVAKRWSGFNTLAKRAPYFSSLLIGLVGVYMGVHGFMGIMR	5.43 ± 0.75	5.864 ± 0.02	4.77	4.13	> 4	10.8	5.97	11.6				
MKISRETLHQLIENKLCQAGLKREHAATVAEVLVYADARGIHSHGAVRVEYYAERISKGGTNREPEFRLEETGPCSAILHADNAAGQVAAKMGMEHAIKTAQQNGVAVVGISRMGHSGAISYFVQQAARAGFIGISMCQSDPMVVPFGGAEIYYGTNPLAFAAPGEGDEILTFDMATTVQAWGKVLDARSRNMSIPDTWAVDKNGVPTTDPFAVHALLPAAGPKGYGLMMMIDVLSGVLLGLPFGRQVSSMYDDLHAGRNLGQLHIVINPNFFSSSELFRQHLSQTMRELNAITPAPGFNQVYYPGQDQDIKQRKAAVEGIEIVDDIYQYLISDALYNTSYETKNPFAQ		5.52 ± 0.59			2.88			> 16				
MKIIILGAGQVGGTLAENLVGENNDITVVDTNGERLRTLQDKFDLRVVQGHGSHPRVLREAGADDADMLVAVTSSDETNMVACQVAYSLFNTPNRIARIRSPDYVRDADKLFHSDAVPIDHLIAPEQLVIDNIYRLIEYPGALQVVNFAEGKVSLAVVKAYYGGPLIGNALSTMREHMPHIDTRVAAIFRHDRPIRPQGSTIVEAGDEVFFIAASQHIRAVMSELQRLEKPYKRIMLVGGGNIGAGLARRLEKDYSVKLIERNQQRAAELAEKLQNTIVFFGDASDQELLAEEHIDQVDLFIAVTNDDEANIMSAMLAKRMGAKKVMVLIQRRAYVDLVQGSVIDIAISPQQATISALLSHVRKADIVGVSSLRRGVAEAIEAVAHGDESTSRVVGRVIDEIKLPPGTIIGAVVRGNDVMIANDNLRIEQGDHVIMFLTDKKFITDVERLFQPSPFFL [P0AGI8]	5.41 ± 0.16	6.56 ± 0.57	5.96 ± 0.17	5.31 ± 0.37	3.056 ± 0.029	11.5 ± 0.3	6.38 ± 0.11	13.2 ± 0.66	6.84 ± 1.2	4.97 ± 0.52	5.839 ± 0.044	12 ± 0.56
MTSSYLHFPEFDPVIFSIGPVALHWYGLMYLVGFIFAMWLATRRANRPGSGWTKNEVENLLYAGFLGVFLGGRIGYVLFYNFPQFMADPLYLFRVWDGGMSFHGGLIGVIVVMIIFARRTKRSFFQVSDFIAPLIPFGLGAGRLGNFINGELWGRVDPNFPFAMLFPGSRTEDILLLQTNPQWQSIFDTYGVLPRHPSQLYELLLEGVVLFIILNLYIRKPRPMGAVSGLFLIGYGAFRIIVEFFRQPDAQFTGAWVQYISMGQILSIPMIVAGVIMMVWAYRRSPQQHVS				7.73			6.28 ± 0.24	11.5 ± 0.95	> 8		6.89 ± 0.72	
MFQDNPLLAQLKQQLHSQTPRAEGVVKATEKGFGFLEVDAQKSYFIPPPQMKKVMHGDRIIAVIHSEKERESAEPEELVEPFLTRFVGKVQGKNDRLAIVPDHPLLKDAIPCRAARGLNHEFKEGDWAVAEMRRHPLKGDRSFYAELTQYITFGDDHFVPWWVTLARHNLEKEAPDGVATEMLDEGLVREDLTALDFVTIDSASTEDMDDALFAKALPDDKLQLIVAIADPTAWIAEGSKLDKAAKIRAFTNYLPGFNIPMLPRELSDDLCSLRANEVRPVLACRMTLSADGTIEDNIEFFAATIESKAKLVYDQVSDWLENTGDWQPESEAIAEQVRLLAQICQRRGEWRHNHALVFKDRPDYRFILGEKGEVLDIVAEPRRIANRIVEEAMIAANICAARVLRDKLGFGIYNVHMGFDPANADALAALLKTHGLHVDAEEVLTLDGFCKLRRELDAQPTGFLDSRIRRFQSFAEISTEPGPHFGLGLEAYATWTSPIRKYGDMINHRLLKAVIKGETATRPQDEITVQMAERRRLNRMAERDVGDWLYARFLKDKAGTDTRFAAEIVDISRGGMRVRLVDNGAIAFIPAPFLHAVRDELVCSQENGTVQIKGETVYKVTDVIDVTIAEVRMETRSIIARPVA	3.92 ± 0.095	5.8 ± 0.41	4.41 ± 0.31	4.57 ± 0.42	2.74 ± 0.38	10 ± 3.6	4.66 ± 0.14	8.07 ± 0.19	6.36 ± 1.1	5.31 ± 0.54	4.3 ± 0.15	7.65 ± 0.77
MKTVVFAYHDMGCLGIEALLAAGYEISAIFTHTDNPGEKAFYGSVARLAAERGIPVYAPDNVNHPLWVERIAQLSPDVIFSFYYRHLIYDEILQLAPAGAFNLHGSLLPKYRGRAPLNWVLVNGETETGVTLHRMVKRADAGAIVAQLRIAIAPDDIAITLHHKLCHAARQLLEQTLPAIKHGNILEIAQRENEATCFGRRTPDDSFLEWHKPASVLHNMVRAVADPWPGAFSYVGNQKFTVWSSRVHPHASKAQPGSVISVAPLLIACGDGALEIVTGQAGDGITMQGSQLAQTLGLVQGSRLNSQPACTARRRTRVLILGVNGFIGNHLTERLLREDHYEVYGLDIGSDAISRFLNHPHFHFVEGDISIHSEWIEYHVKKCDVVLPLVAIATPIEYTRNPLRVFELDFEENLRIIRYCVKYRKRIIFPSTSEVYGMCSDKYFDEDHSNLIVGPVNKPRWIYSVSKQLLDRVIWAYGEKEGLQFTLFRPFNWMGPRLDNLNAARIGSSRAITQLILNLVEGSPIKLIDGGKQKRCFTDIRDGIEALYRIIENAGNRCDGEIINIGNPENEASIEELGEMLLASFEKHPLRHHFPPFAGFRVVESSSYYGKGYQDVEHRKPSIRNAHRCLDWEPKIDMQETIDETLDFFLRTVDLTDKPS	3.13 ± 0.3	4.8816 ± 0.00064	2.84 ± 0.19	3.86 ± 0.1		10.4 ± 1.2	5.82 ± 0.22	11.65 ± 0.019	5.15 ± 0.03	3.11 ± 0.24	2.93 ± 0.43	4.61 ± 0.62
MNLMTTITGVVLAGGKARRMGGVDKGLLELNGKPLWQHVADALMTQLSHVVVNANRHQEIYQASGLKVIEDSLADYPGPLAGMLSVMQQEAGEWFLFCPCDTPYIPPDLAARLNHQRKDAPVVWVHDGERDHPTIALVNRAIEPLLLEYLQAGERRVMVFMRLAGGHAVDFSDHKDAFVNVNTPEELARWQEKR	3.59 ± 0.12	5.9 ± 0.46	3.728 ± 0.033	4.1 ± 0.19	2.95 ± 0.26	9.71 ± 3.2	5.046 ± 0.009	10.9 ± 0.43	4.29 ± 0.5	3.95 ± 0.19	4.46	6.67 ± 1.5
MLGWVITCHDDRAQEILDALEKKHGALLQCRAVNFWRGLSSNMLSRMMCDALHEADSGEGVIFLTDIAGAPPYRVASLLSHKHSRCEVISGVTLPLIEQMMACRETMTSSEFRERIVELGAPEVSSLWHQQQKNPPFVLKHNLYEY		0.895				0.859			4.15			
MFTGIVQGTAKLVSIDEKPNFRTHVVELPDHMLDGLETGASVAHNGCCLTVTEINGNHVSFDLMKETLRITNLGDLKVGDWVNVERAAKFSDEIGGHLMSGHIMTTAEVAKILTSENNRQIWFKVQDSQLMKYILYKGFIGIDGISLTVGEVTPTRFCVHLIPETLERTTLGKKKLGARVNIEIDPQTQAVVDTVERVLAARENAMNQPGTEA [P0AFU8]	4.561 ± 0.029	5.3745 ± 0.003	4.123 ± 0.0054	4.774 ± 0.047	3.06 ± 0.28	12.1 ± 4.4	5.96 ± 0.6	11.6 ± 0.24	4.8 ± 0.2	4.397 ± 0.01	4.25 ± 0.16	6.8 ± 0.16
MHSQIWVVSTLLISIVLIVLTIVKFKFHPFLALLLASFFVGTMMGMGPLDMVNAIESGIGGTLGFLAAVIGLGTILGKMMEVSGAAERIGLTLQRCRWLSVDVIMVLVGLICGITLFVEVGVVLLIPLAFSIAKKTNTSLLKLAIPLCTALMAVHCVVPPHPAALYVANKLGADIGSVIVYGLLVGLMASLIGGPLFLKFLGQRLPFKPVPTEFADLKVRDEKTLPSLGATLFTILLPIALMLVKTIAELNMARESGLYILVEFIGNPITAMFIAVFVAYYVLGIRQHMSMGTMLTHTENGFGSIANILLIIGAGGAFNAILKSSSLADTLAVILSNMHMHPILLAWLVALILHAAVGSATVAMMGATAIVAPMLPLYPDISPEIIAIAIGSGAIGCTIVTDSLFWLVKQYCGATLNETFKYYTTATFIASVVALAGTFLLSFII	4.91	5.8				11.9						9.38
MVKSTPCITIDFMNMSQLTERTFTPSESLSSLSLFLSLARGQCRPGKFWHRRSFRQKFLLRSLIMPRLSVEWMNELSHWPNLNVLLTRQPRLPVRLHRPYLAANLSRKQLLEALRYHYALLRECMSAEEFSLYLNTPGLQLAKLEGKNGEQFTLELTMMISMDKEGDSTILFRNSEGIPLAEITFTLCEYQGKRTMFIGGLQGAKWEIPHQEIQNATKACHGLFPKRLVMEAACLFAQRLQVEQIIAVSNETHIYRSLRYRDKEGKIHADYNAFWESVGGVCDAERHYRLPAQIARKEIAEIASKKRAEYRRRYEMLDAIQPQMATMFRG	0.646 ± 0.039	0.7307 ± 0.0013	0.723	1.38 ± 0.35	0.953 ± 0.067	1.31		2.33	3.06 ± 0.041		1.16 ± 0.38	1.2 ± 0.25
MSRIEAVFFDCDGTLVDSEVICSRAYVTMFQEFGITLDPEEVFKRFKGVKLYEIIDIVSLEHGVTLAKTEAEHVYRAEVARLFDSELEAIEGAGALLSAITAPMCVVSNGPNNKMQHSMGKLNMLHYFPDKLFSGYDIQRWKPDPALMFHAAKAMNVNVENCILVDDSVAGAQSGIDAGMEVFYFCADPHNKPIVHPKVTTFTHLSQLPELWKARGWDITA		4.76		2.73	2.09	9.19						2.64
MFQKVDAYAGDPILTLMERFKEDPRSDKVNLSIGLYYNEDGIIPQLQAVAEAEARLNAQPHGASLYLPMEGLNCYRHAIAPLLFGADHPVLKQQRVATIQTLGGSGALKVGADFLKRYFPESGVWVSDPTWENHVAIFAGAGFEVSTYPWYDEATNGVRFNDLLATLKTLPARSIVLLHPCCHNPTGADLTNDQWDAVIEILKARELIPFLDIAYQGFGAGMEEDAYAIRAIASAGLPALVSNSFSKIFSLYGERVGGLSVMCEDAEAAGRVLGQLKATVRRNYSSPPNFGAQVVAAVLNDEALKASWLAEVEEMRTRILAMRQELVKVLSTEMPERNFDYLLNQRGMFSYTGLSAAQVDRLREEFGVYLIASGRMCVAGLNTANVQRVAKAFAAVM	2.676 ± 0.003	4.92 ± 0.29	2.54 ± 0.061	3.01 ± 0.049	3.06 ± 0.56	7.47 ± 0.87	5.28 ± 0.29	9.773 ± 0.058	4.07 ± 1.2	2.43 ± 0.047	2.62 ± 0.058	3.66 ± 0.17
